Test system: Bacillus subtilis
Test: cleaved RNA product abundance (RNA/gDNA barcode ratio) relative to median wild-type variant (ratio to wild type); higher = more accumulation of the downstream cleavage product
Details: cleavage site: cggR-gapA (positions -7 to +36 mutated)
In short: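 Cleaved product abundance for each construct is its RNA-to-gDNA barcode ratio, scaled to the median construct carrying the unmutated site. Cleaved RNA was isolated on a gel, reverse transcribed and barcode-sequenced, with genomic DNA barcodes sequenced alongside and UMIs collapsed. The reporters were truncated aprE or tetM mRNAs with barcoded, mutagenized RNase Y cleavage-site windows integrated into the B. subtilis chromosome, and cultures grew in LB at 37°C from OD600 0.0003 to 0.3.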

[1] = experiment (reporter, strain, medium): exp 4a: truncated aprE reporter, strain BJT201 with 2% xylose (RNase J1 expressed)
[2] = experiment (reporter, strain, medium): exp 2b: truncated aprE reporter, strain BJT200

Sequence | cleaved RNA product abundance [1] | cleaved RNA product abundance [2] | cleaved RNA product abundance (experiment (reporter, strain, medium): exp 6: tetM reporter, strain 168)
ACAGACGAAGGAGCCGCAAAGAAGTTATTAAGAGATGAATAATCCCTCACTATAAATATCTCTCACTTATTTAAA | 0.131 | – | –
ACAGACGAAGGAGCCGCAAAGAAGTTATTAAGAGATGAATAATCCCTCATTATAAATATCTCTCACTTATTTAAA | 0.177 | – | –
ACAGACGAAGGAGCCGCAAAGAAGTTATTAAGAGATGAATAATCCCTCCATATAAATATCTCTCACTTATTTAAA | – | 0.0792 | –
ACAGACGAAGGAGCCGCAAAGAAGTTATTAAGAGATGAATAATCCCTCGATATAAATATCTCTCACTTATTTAAA | 0.0848 | – | –
ACAGACGAAGGAGCCGCAAAGAAGTTATTAAGAGATGAATAATCCCTCTATATAAATATCTCTCACTTATTTAAA | 0.118 | – | –
ACAGACGAAGGAGCCGCAAAGAAGTTATTAAGAGATGAATAATCCCTGAATATAAATATCTCTCACTTATTTAAA | 0.0805 | – | –
ACAGACGAAGGAGCCGCAAAGAAGTTATTAAGAGATGAATAATCCCTTAATATAAATATCTCTCACTTATTTAAA | 0.431 | 0.727 | –
ACAGACGAAGGAGCCGCAAAGAAGTTATTAAGAGATGAATAATCCGTCAATATAAATATCTCTCACTTATTTAAA | 0.0917 | 0.0978 | –
ACAGACGAAGGAGCCGCAAAGAAGTTATTAAGAGATGAATAATCCTTCAATATAAATATCTCTCACTTATTTAAA | 0.211 | 0.105 | –
ACAGACGAAGGAGCCGCAAAGAAGTTATTAAGAGATGAATAATCGCTCAATATAAATATCTCTCACTTATTTAAA | 0.0997 | – | –
ACAGACGAAGGAGCCGCAAAGAAGTTATTAAGAGATGAATAATCTCTCAATATAAATATCTCTCACTTATTTAAA | 0.924 | 0.718 | –
ACAGACGAAGGAGCCGCAAAGAAGTTATTAAGAGATGAATAATGCCTCAATATAAATATCTCTCACTTATTTAAA | 0.1 | – | –
ACAGACGAAGGAGCCGCAAAGAAGTTATTAAGAGATGAATAATTCCTCAATATAAATATCTCTCACTTATTTAAA | 0.106 | 0.0877 | –
ACAGACGAAGGAGCCGCAAAGAAGTTATTAAGAGATGAATACTCCCTCAATATAAATATCTCTCACTTATTTAAA | 0.0945 | – | –
ACAGACGAAGGAGCCGCAAAGAAGTTATTAAGAGATGAATAGTCCCTCAATATAAATATCTCTCACTTATTTAAA | 0.136 | 0.0992 | –
ACAGACGAAGGAGCCGCAAAGAAGTTATTAAGAGATGAATATTCCCTCAATATAAATATCTCTCACTTATTTAAA | 0.0954 | – | –
ACAGACGAAGGAGCCGCAAAGAAGTTATTAAGAGATGAATCATCCCTCAATATAAATATCTCTCACTTATTTAAA | 0.139 | – | –
ACAGACGAAGGAGCCGCAAAGAAGTTATTAAGAGATGAATGATCCCTCAATATAAATATCTCTCACTTATTTAAA | 0.0837 | – | –
ACAGACGAAGGAGCCGCAAAGAAGTTATTAAGAGATGAATTATCCCTCAATATAAATATCTCTCACTTATTTAAA | 0.183 | 0.102 | –
ACAGACGAAGGAGCCGCAAAGAAGTTATTAAGAGATGACTAATCCCTCAATATAAATATCTCTCACTTATTTAAA | 0.0924 | 0.082 | –
ACAGACGAAGGAGCCGCAAAGAAGTTATTAAGAGATGAGTAATCCCTCAATATAAATATCTCTCACTTATTTAAA | 0.241 | – | –
ACAGACGAAGGAGCCGCAAAGAAGTTATTAAGAGATGATTAATCCCTCAATATAAATATCTCTCACTTATTTAAA | 0.173 | – | –
ACAGACGAAGGAGCCGCAAAGAAGTTATTAAGAGATGCATAATCCCTCAATATAAATATCTCTCACTTATTTAAA | 0.158 | 0.117 | –
ACAGACGAAGGAGCCGCAAAGAAGTTATTAAGAGATGTATAATCCCTCAATATAAATATCTCTCACTTATTTAAA | 0.229 | – | –
ACAGACGAAGGAGCCGCAAAGAAGTTATTAAGAGATTAATAATCCCTCAATATAAATATCTCTCACTTATTTAAA | 0.115 | 0.116 | –
ACAGACGAAGGAGCCGCAAAGAAGTTATTAAGAGCTGAATAATCCCTCAATATAAATATCTCTCACTTATTTAAA | – | 0.0922 | –

Sequence | cleaved RNA product abundance [1] | cleaved RNA product abundance [2] | cleaved RNA product abundance (experiment (reporter, strain, medium): exp 6: tetM reporter, strain 168)
ACAGACGAAGGAGCCGCAAAGAAGTTATTAAGAGGTGAATAATCCCTCAATATAAATATCTCTCACTTATTTAAA | 0.253 | – | –
ACAGACGAAGGAGCCGCAAAGAAGTTATTAAGAGTTGAATAATCCCTCAATATAAATATCTCTCACTTATTTAAA | 0.0897 | – | –
ACAGACGAAGGAGCCGCAAAGAAGTTATTAAGATATGAATAATCCCTAAATATAAATATCTCTCACTTATTTAAA | 0.101 | – | –
ACAGACGAAGGAGCCGCAAAGAAGTTATTAAGATATGAATAATCCCTCAATATAAATATCTCTCACTTATTTAAA | 0.115 | 0.0758 | –
ACAGACGAAGGAGCCGCAAAGAAGTTATTAAGCAATGAATAATCCCTCAATATAAATATCTCTCACTTATTTAAA | 0.122 | 0.0903 | –
ACAGACGAAGGAGCCGCAAAGAAGTTATTAAGCCATGAATAATCCCTCAATATAAATATCTCTCACTTATTTAAA | 0.106 | – | 0.058
ACAGACGAAGGAGCCGCAAAGAAGTTATTAAGCGATAAATAATCCCTCAATATAAATATCTCTCACTTATTTAAA | 0.0716 | 0.0673 | –
ACAGACGAAGGAGCCGCAAAGAAGTTATTAAGCGATCAATAATCCCTCAATATAAATATCTCTCACTTATTTAAA | 0.0886 | 0.0893 | –
ACAGACGAAGGAGCCGCAAAGAAGTTATTAAGCGATGAACAATCCCTCAATATAAATATCTCTCACTTATTTAAA | 0.133 | – | –
ACAGACGAAGGAGCCGCAAAGAAGTTATTAAGCGATGAAGAATCCCTCAATATAAATATCTCTCACTTATTTAAA | 0.0967 | – | –
ACAGACGAAGGAGCCGCAAAGAAGTTATTAAGCGATGAATAAACCCTCAATATAAATATCTCTCACTTATTTAAA | 0.0954 | – | –
ACAGACGAAGGAGCCGCAAAGAAGTTATTAAGCGATGAATAAGCCCTCAATATAAATATCTCTCACTTATTTAAA | 0.108 | – | –
ACAGACGAAGGAGCCGCAAAGAAGTTATTAAGCGATGAATAATACCTCAATATAAATATCTCTCACTTATTTAAA | 0.127 | 0.0864 | –
ACAGACGAAGGAGCCGCAAAGAAGTTATTAAGCGATGAATAATCACTCAATATAAATATCTCTCACTTATTTAAA | 0.101 | – | –
ACAGACGAAGGAGCCGCAAAGAAGTTATTAAGCGATGAATAATCCATCAATATAAATATCTCTCACTTATTTAAA | 0.154 | 0.121 | –
ACAGACGAAGGAGCCGCAAAGAAGTTATTAAGCGATGAATAATCCCACAATATAAATATCTCTCACTTATTTAAA | 0.0785 | – | –
ACAGACGAAGGAGCCGCAAAGAAGTTATTAAGCGATGAATAATCCCCCAATATAAATATCTCTCACTTATTTAAA | 0.13 | 0.0922 | –
ACAGACGAAGGAGCCGCAAAGAAGTTATTAAGCGATGAATAATCCCGCAATATAAATATCTCTCACTTATTTAAA | 0.0767 | 0.0603 | –
ACAGACGAAGGAGCCGCAAAGAAGTTATTAAGCGATGAATAATCCCTAAATATAAATATCTCTCACTTATTTAAA | 0.207 | 0.132 | –
ACAGACGAAGGAGCCGCAAAGAAGTTATTAAGCGATGAATAATCCCTCAAAATAAATATCTCTCACTTATTTAAA | 0.108 | 0.0793 | –
ACAGACGAAGGAGCCGCAAAGAAGTTATTAAGCGATGAATAATCCCTCAAGATAAATATCTCTCACTTATTTAAA | 0.0789 | 0.0861 | –
ACAGACGAAGGAGCCGCAAAGAAGTTATTAAGCGATGAATAATCCCTCAATAAAAATATCTCTCACTTATTTAAA | 0.0528 | – | –
ACAGACGAAGGAGCCGCAAAGAAGTTATTAAGCGATGAATAATCCCTCAATAGAAATATCTCTCACTTATTTAAA | 0.0613 | 0.0778 | –
ACAGACGAAGGAGCCGCAAAGAAGTTATTAAGCGATGAATAATCCCTCAATATAAAAATCTCTCACTTATTTAAA | 0.111 | 0.111 | –
ACAGACGAAGGAGCCGCAAAGAAGTTATTAAGCGATGAATAATCCCTCAATATAAACATCTCTCACTTATTTAAA | 0.0627 | 0.0873 | –
ACAGACGAAGGAGCCGCAAAGAAGTTATTAAGCGATGAATAATCCCTCAATATAAATAACTCTCACTTATTTAAA | 0.102 | 0.114 | –
